# Reference: US20150004162A1
# Biological target: human DR5 (human) (UniProt O14763)
# Assay: ELISA, half-log dilutions on wells coated with 1 microgram/ml human DR5, anti-mouse polyclonal antibody-HRP
# Sequence of human DR5 (human) (O14763 other isoform, or with tags, fused parts or gaps limits assumed): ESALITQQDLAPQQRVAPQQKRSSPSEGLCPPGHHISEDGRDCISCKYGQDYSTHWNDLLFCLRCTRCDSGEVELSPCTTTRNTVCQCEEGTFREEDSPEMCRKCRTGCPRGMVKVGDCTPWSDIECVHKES
substance,measurement,value
MAB631 (antibody),EC50,0.0651 nM
